PMC11904528, “Discovery and preclinical development of a SdAb-based CAR-T technology for targeting CD33 in AML” (Molecular Therapy Oncology, 2025)
Read-outs that look alike come from different tables or passages of the source.

Legend:
[1] = target: T1, CD33 recombinant ectodomain (His-tagged) (Homo sapiens, UniProt P20138); assay: SPR; Biacore X100, NTA chip; His-tagged CD33 ectodomain captured on nickel, cross-linked with EDC/NHS, nickel stripped with EDTA (388 RU); SdAbs as analytes at 1,000-12.3 nM; single-cycle kinetics; HBS-EP+; 10 uL/min, contact 300 s, dissociation 600 s; 1:1 binding model
T1 sequence (P20138 18-259): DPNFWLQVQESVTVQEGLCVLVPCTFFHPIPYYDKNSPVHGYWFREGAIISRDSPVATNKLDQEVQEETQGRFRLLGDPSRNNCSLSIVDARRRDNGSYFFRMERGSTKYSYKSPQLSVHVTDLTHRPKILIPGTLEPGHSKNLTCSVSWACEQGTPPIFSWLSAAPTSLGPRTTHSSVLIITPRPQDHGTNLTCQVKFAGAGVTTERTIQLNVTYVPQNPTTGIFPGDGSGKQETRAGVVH

[2] = target: T1, CD33 recombinant ectodomain (His-tagged); assay: ELISA; CD33-coated plates; SdAbs titrated and detected with anti-HA HRP; relative affinities (EC50)
[3] = target: T1, CD33 recombinant ectodomain (His-tagged)
[4] = target: T2, Biotinylated CD33 (bio-CD33) (Homo sapiens, UniProt P20138, biotin); assay: BLI; Octet N1, streptavidin SAX2 sensors; bio-CD33 immobilised at 100 nM; in-tandem epitope binning: first antibody 400 nM, then a mixture of 400 nM first and 200 nM second antibody; PBS; settings: both partners purified
T2 construct: CD33 (Siglec-3), biotinylated
T2 sequence (P20138 whole entry, looked up, tested part not stated): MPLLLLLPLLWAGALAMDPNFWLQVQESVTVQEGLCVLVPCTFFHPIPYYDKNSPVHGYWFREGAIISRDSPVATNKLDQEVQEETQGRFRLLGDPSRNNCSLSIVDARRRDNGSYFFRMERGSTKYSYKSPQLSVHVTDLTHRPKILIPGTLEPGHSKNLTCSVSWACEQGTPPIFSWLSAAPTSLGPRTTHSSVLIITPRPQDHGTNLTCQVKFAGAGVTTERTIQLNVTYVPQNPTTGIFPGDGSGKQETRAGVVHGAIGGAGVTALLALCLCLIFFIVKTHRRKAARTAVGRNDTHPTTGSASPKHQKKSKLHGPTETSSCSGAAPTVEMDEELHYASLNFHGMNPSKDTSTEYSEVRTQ

[5] = target: CD33 recombinant ectodomain (His-tagged) (human) (UniProt P20138); assay: ELISA; CD33-coated plates; SdAbs titrated and detected with anti-HA HRP; relative affinities (EC50)
Sequence of CD33 recombinant ectodomain (His-tagged) (human) (P20138 18-259): as the sequence (P20138 18-259) above

[6] = target: CD33 recombinant ectodomain (His-tagged) (human) (UniProt P20138); assay: SPR; Biacore X100, NTA chip; His-tagged CD33 ectodomain captured on nickel, cross-linked with EDC/NHS, nickel stripped with EDTA (388 RU); SdAbs as analytes at 1,000-12.3 nM; single-cycle kinetics; HBS-EP+; 10 uL/min, contact 300 s, dissociation 600 s; 1:1 binding model

B1: Nb16 (VHH)
VHH: EVQLVESGGGLVQTGGSLRLSCAASGRTFSPLAMGWFRQAPGREREFVAGITWSGGSLYYGDFVKGRFTISRDAAKNTLYLQMNSLKPEDTAVYYCAARDYSGDSNFQVTRPSEWDHWGQGTQVTVSS
B1 was tested. Which Kd [1] did it give?
The Kd was 4.18 nM.

And the koff [1]?
The koff was 4.64e-05 s⁻¹.

What about the kon [1] of the same binder?
Its kon is 11100 M⁻¹ s⁻¹.

What about the EC50 [2] of the same binder?
Its EC50 is 1.91 nM.

And the Kd [3]?
The Kd was 4.18 nM.

B2: Nb3 (VHH)
VHH: EVQLVESGGGLVQAGGSLSLSCAASGRTFSSYVMGWFRQAPGKEREFVAALTWSGGSTYYGDSAKGRFTISRDNAKNTVYLQMNSLKPEDTADYYCAAAALEGGAYHIATMSTYNYWGQGTQVTVSS
notes: llama VHH; From a phage display library of a llama immunised with CD33; also called SdAb Nb3; source: E. coli expression strains (pETMod, OmpA periplasmic signal), purified (IMAC, IEC)
Does B2 bind [4]?
Result: binds

And the EC50 [5]?
Its EC50 is 16.7 nM.

What about the Kd [6] of the same binder?
The Kd was 115 nM.

And the koff [6]?
Its koff is 0.0017 s⁻¹.

What about the kon [6] of the same binder?
Its kon is 14700 M⁻¹ s⁻¹.

B3: Nb1 (VHH)
VHH: QVQLQESGGGLVQVGGSLRLSCAASGRAFSTDIMAWFRQAPGKEREFVAAIKWNADNTYDTNSVKGRFTISRDNAKNTNYLEVNSLKPEDTAVYYCASGFSSRPYSDSDSRKYIYWGQGTQVTVSS
notes: llama VHH; From a phage display library of a llama immunised with CD33; also called SdAb Nb1; source: E. coli expression strains (pETMod, OmpA periplasmic signal), purified (IMAC, IEC)
What does the source list for B3?
Kd ([1]; both partners purified): 29.9 nM; koff ([1]; both partners purified): 0.0011 s⁻¹; kon ([1]; both partners purified): 36800 M⁻¹ s⁻¹; EC50 ([2]; both partners purified): 6.4 nM

B4: Nb8 (VHH)
VHH: EVQLVESGGGLVQDGGSLRLSCAASGRTFSSYVMGWFRQAPGKEREFVAAITWSGGSTYYADSVKGRFTISRDNAKNTVYLQMNSLKPEDTAVYYCAAFELGGGSYYYPDPNEYDYWGQGTQVTVSS
notes: llama VHH; From a phage display library of a llama immunised with CD33; also called SdAb Nb8; source: E. coli expression strains (pETMod, OmpA periplasmic signal), purified (IMAC, IEC)
What does the source list for B4?
Kd ([1]; both partners purified): 14.4 nM; koff ([1]; both partners purified): 0.000356 s⁻¹; kon ([1]; both partners purified): 24800 M⁻¹ s⁻¹; EC50 ([2]; both partners purified): 3.99 nM

B5: Nb17 (VHH)
VHH: QVQLQESGGGLVQTGGSLRLSCAVSGSTFSDYVIGWFRQAPGKERDFVAAITWSGGSTYYADSVKGRFIISRDNAKNTVYLQMNSLKPEGTAVYYCAALQLKGGSYYYPAPEEYSYWGQGTQVTVSS
notes: llama VHH; From a phage display library of a llama immunised with CD33; also called SdAb Nb17; source: E. coli expression strains (pETMod, OmpA periplasmic signal), purified (IMAC, IEC)
Which Kd ([1]; both partners purified) does the source give for B5 here?
Its Kd is 4.99 nM.

What about the koff ([1]; both partners purified) of the same binder?
Its koff is 8.24e-05 s⁻¹.

What about the kon ([1]; both partners purified) of the same binder?
Its kon is 16500 M⁻¹ s⁻¹.

And the EC50 ([2]; both partners purified)?
Its EC50 is 4.05 nM.
